# According to the supplement of paper PMC9170038:
# Tested on: MS2 coat protein
# Assay: apparent KD of MS2 coat protein; designed switch direction (-1 OFF switch, 1 ON switch): -1; higher = weaker reporter binding
# Procedure, shortened: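 Each step of the titration lasted 0.8–1.5 h at the lowest concentration and 10–20 min at the highest. The protein, SNAP-549-labelled MS2 coat protein, went from 0.7 or 1.5 nM doubling to 3 µM over RNA switches transcribed on Illumina chips by stalled E. coli RNA polymerase. Normalised cluster fluorescence was curve-fitted, and the per-design median over clusters is given as apparent KD.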
# [1] = Eterna round: R95, input ligand: FMN 200 uM
# [2] = Eterna round: R95, input ligand: microRNA oligo, concentration not stated
# [3] = Eterna round: R95, input ligand: none
# [4] = input ligand: microRNA oligo, concentration not stated
Sequence,apparent KD of MS2 coat protein [1] [nM],apparent KD of MS2 coat protein [2] [nM],apparent KD of MS2 coat protein [3] [nM],apparent KD of MS2 coat protein (input ligand: FMN 200 uM) [nM],apparent KD of MS2 coat protein (input ligand: none) [nM],apparent KD of MS2 coat protein [4] [nM]
"CGGAGCAGAGGGAGAUCCAACAUGAGGAUCACCCAUGUCUCACAAGCUUUUUGCUCAUCUUAUUGUACCUUGGUGCU [JL ViennaUCT Edcesobi mod 6] (puzzle: Sensor v3, turn-off variant 1)",40.5,10.1,46.8,,,
"CGGAUGUAAGGAUAUUAGUAGUAGUCAGAAUAGACUAUUACUGAGAAGGUACAUGAGGAUCACCCAUGUUUCCG [Eli x4 4.18] (Eterna round: R97, puzzle: Exclusion 4)",,,,27.5,16.8,
CGGAUGUGAGGAUAUACAUGAGGAUCACCCAUGUGUGCCAGCUAGCUGACUGGCACUUGUAGAAGGCACGUCUG [JL-ex3-2.14 Brourd mod] (puzzle: Exclusion 3),,11.1,,,,
"CGGCAAAGGUAGGAUAUGCUAGACGAGAGUCUAGCAGAAGGACCUACAUGAGGAUCACCCAUGUGUCCAAGCCG [Mat - Exclusion 6 - Eli Mod - D20] (Eterna round: R97, puzzle: Exclusion 6)",,,,32,97.3,
"CGGGCCGGCCUUCCGGCCGGCCCGACAUGAGGAUCACCCAUGUAGGAUAUCCCGGCUGCCGGCCGGGAGAAGGACAUGCGCCCG [-45.9, -45.9 kcal, 17% A] (Eterna round: R96, puzzle: Exclusion NG 3)",,,,104,49.3,65.3
CGGUGCUGAGGAUAUACAUGAGGAUCACCCAUGUGUUCCAGCUAGCGUACUGGCGGAUGUAGAAGGCGGUACUG [JL-ex3-3.40 Brourd mod] (puzzle: Exclusion 3),52.8,13.1,17.7,,,
"CGGUGUAACACAGGAUAUCAUCGCAACUGACGUUGAGAAGGGUGACAUGAGGAUCACCCAUGUGAUUUCUCAAUAUUAUACAUC [Prohibition 83 - Jieux - Exclusion NG 1] (Eterna round: R96, puzzle: Exclusion NG 1)",,,,508,629,481
"CGGUGUAACAGAGGAUAUGAGCGCAACUGACGAUCAGAAGGCUGACAUGAGGAUCACCCAUGUGAUUUCUCAAUAUUAUACAUC [Prohibition 89 - Jieux - Exclusion NG 1] (Eterna round: R96, puzzle: Exclusion NG 1)",,,,34.2,153,324
"CGGUGUAGAGGAUAUACGUGGAUGUAAGUUCAUGAUAUUUUACAUGAGGAUCACCCAUGUAGAAGGCUAUAGCG [JR_Ex2_Sub079] (Eterna round: R97, puzzle: Exclusion 2)",,,,36.2,351,
"CGUAAGCUAGGAUAUGCUUUGGGAAAGCAUUCCUUCGAUAAACUUGAGGAUCACCCAAGUAGAAGGAGCUUACG [salish99_ex2_r4_010] (Eterna round: R97, puzzle: Exclusion 2)",,,,24.8,16.8,
"CGUAAGUGAGGAUAUCGUAGAGGAGACAUGAGGAUCACCCAUGUGUCAAGCGGUCCCGAAUGAGAAGGCACUGGUU [EX5 B.25] (Eterna round: R97, puzzle: Exclusion 5)",,,,21.5,20.3,
"CGUAGACAUGAGGAUCACCCAUGUGAGGAUAUGCUUUUUUAUUAGAAAUGGUGGAGGAGCAGAAGGCACGUGCG [-21.6, -21.5 kcal, 28% A] (Eterna round: R97, puzzle: Exclusion 1)",,,,160,59.7,
"CGUAUGUAAGGAUAUUAGUAGUAGUCAGAAUAGACUAUUACUGAGAAGGUACAUGAGGAUCACCCAUGUUAGCG [Eli x4 4.15] (Eterna round: R97, puzzle: Exclusion 4)",,,,229,31.6,
"CGUCAACAUGAGGAUCACCCAUGUUAGGAUAUAGAGCCAGGGCACGACGCUAACCAGUCUAGAAGGGACGUGGG [Eternabot (Original) Solution 5] (Eterna round: R97, puzzle: Exclusion 1)",,,,45.9,37.1,
"CGUCAGUGAGGAUAUGGUAACAUUUACAUGAGGAUCACCCAUGUUUCUUGGGACUAAAUACUAGAAGGCACUGACG [JR_Ex5_Sub032] (Eterna round: R97, puzzle: Exclusion 5)",,,,23.1,15,
"CGUCUGUAAGGAUAUGGUAGCGUUUACAUGAGGAUCACCCAUGUUACAUGGGACUAGAGACUAGAAGGUACGAACG [EX5 #51] (Eterna round: R97, puzzle: Exclusion 5)",,,,589,2520,
"CGUCUGUAAGGAUAUGGUUGCAUCAACAUGAGGAUCACCCAUGUUACAUGGGACUAGUGAUUAGAAGGUACGAACG [EX5 #57] (Eterna round: R97, puzzle: Exclusion 5)",,,,58.3,54.2,
CGUGCGUAUGUGAGGAUAUGCUGGUCCUUGGAUCGGCAGAAGGCACAUGAGGAUCACCCAUGUGGUGUCGUACG [salish99_Bmod_ex4_080] (puzzle: Brourd's mod of Exclusion 4),,374,,,,
"CGUGUGUAAGGAUAUUUUGCAAGGCGGUGGACCCGCCUAUUAGAGAAGGUACAUGAGGAUCACCCAUGUGAGCC [Eternabot (L2) Solution 74] (Eterna round: R97, puzzle: Exclusion 4)",,,,58.2,42.3,
"CGUUAGUGAGGAUAUGGAAAUAGGUACAUGAGGAUCACCCAUGUUUGAAGGGAAAAGAGCCUAGAAGGCACUAACG [JR_Ex5_Sub055] (Eterna round: R97, puzzle: Exclusion 5)",,,,23.5,35.2,
"CUAAUACAUCAGGAUAUGUGUCAUUAUAGCGACACAGAAGGGAUGACAUGAGGAUCACCCAUGUCAAAGGGUGA [eternacac ex6r4 sub22] (Eterna round: R97, puzzle: Exclusion 6)",,,,85.4,639,
"CUAAUGAUAGGAUAUACAGCGAGAGUCGACUCUGGUGCUCAACAUGAGGAUCACCCAUGUAGAAGGAUCAGACC [EX2 C.23] (Eterna round: R97, puzzle: Exclusion 2)",,,,35.9,18.6,
"CUAAUUUGUGUGAGGAUAUGGCGACAGGAGACUAGCCAGAAGGUACAUGAGGAUCACCCAUGUAAGGUCCUCUC [Eternabot (L1) Solution 86] (Eterna round: R97, puzzle: Brourd's mod of Exclusion 4)",,,,16.8,16.3,
"CUAGAUCUUCGGAUCUAGUACAUGAGGAUCACCCAUGUUACGAGCUGAUUUUCAUACAAGCUUUUUGCUCGUCUUAU [Sensor v3 - Turn-off variant 1 - 29] (puzzle: Sensor v3, turn-off variant 1)",38.1,297,41.3,,,
"CUAGCGAUUGUAGGAUAUCGGACUGUUUCAGUCUGAGAAGGACAUGAGGAUCACCCAUGUGAUGCUACGUGAGUAGCACGCUAG [JL ENG1 3.85] (Eterna round: R96, puzzle: Exclusion NG 1)",,,,76.9,30.5,20
